Test results published in patent publication US20050119163A1.

Target: Biotinylated Grb2 SH2 domain protein (UniProt P62993)
Experiment: SPR (Biacore S51), b-Grb2 amine-coupled on CM5 chip, compound in solution

Sequence of Biotinylated Grb2 SH2 domain protein (P62993 60-152 limits assumed): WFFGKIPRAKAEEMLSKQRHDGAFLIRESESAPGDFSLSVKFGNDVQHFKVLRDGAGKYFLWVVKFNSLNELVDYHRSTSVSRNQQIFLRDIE

**Q.** With “Compound 6, tri-sodium salt of compound 5: 2-{(9S,10S,14R,18S)-7,16,19-Triaza-18-(carbamoylmethyl)-14-[(5-methyl indolyl)methyl]-8,17,20-trioxo-10-[4-(phosphonomethyl)phenyl]spiro[5.14]icos-11-en-9-yl}acetic acid (peptide)” as the substance, how does the Kd read?
**A.** 1.67 nM
